Data from patent US6881834.

Columns and labels:
[1] = target: Sp3 (UniProt Q02447); experiment: cell_activity; conditions: luciferase induction in Drosophila cells
[2] = target: Sp1 (UniProt P08047); experiment: cell_activity; conditions: luciferase induction in Drosophila cells
Chain of Sp1 (P08047 2-785): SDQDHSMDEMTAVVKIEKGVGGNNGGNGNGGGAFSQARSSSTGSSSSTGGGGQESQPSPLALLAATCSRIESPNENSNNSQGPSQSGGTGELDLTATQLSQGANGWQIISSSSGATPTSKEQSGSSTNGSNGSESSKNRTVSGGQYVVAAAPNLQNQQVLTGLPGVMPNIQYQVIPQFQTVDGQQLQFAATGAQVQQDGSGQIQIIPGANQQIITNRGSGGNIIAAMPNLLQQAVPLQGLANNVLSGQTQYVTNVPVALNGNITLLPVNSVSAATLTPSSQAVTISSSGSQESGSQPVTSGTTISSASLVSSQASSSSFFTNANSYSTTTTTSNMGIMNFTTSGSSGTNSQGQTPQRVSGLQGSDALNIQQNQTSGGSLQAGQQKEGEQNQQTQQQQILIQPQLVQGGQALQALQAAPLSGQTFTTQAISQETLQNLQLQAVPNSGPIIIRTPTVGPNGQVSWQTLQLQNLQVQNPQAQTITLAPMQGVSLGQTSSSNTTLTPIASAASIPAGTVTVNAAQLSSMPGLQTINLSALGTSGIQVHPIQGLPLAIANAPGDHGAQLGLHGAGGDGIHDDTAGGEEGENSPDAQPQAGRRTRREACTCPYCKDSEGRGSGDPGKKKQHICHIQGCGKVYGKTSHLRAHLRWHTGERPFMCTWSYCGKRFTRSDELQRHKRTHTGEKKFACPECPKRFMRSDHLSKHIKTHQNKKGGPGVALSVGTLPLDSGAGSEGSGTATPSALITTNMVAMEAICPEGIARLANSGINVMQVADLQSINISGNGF

Chain of Sp3 (Q02447 whole entry): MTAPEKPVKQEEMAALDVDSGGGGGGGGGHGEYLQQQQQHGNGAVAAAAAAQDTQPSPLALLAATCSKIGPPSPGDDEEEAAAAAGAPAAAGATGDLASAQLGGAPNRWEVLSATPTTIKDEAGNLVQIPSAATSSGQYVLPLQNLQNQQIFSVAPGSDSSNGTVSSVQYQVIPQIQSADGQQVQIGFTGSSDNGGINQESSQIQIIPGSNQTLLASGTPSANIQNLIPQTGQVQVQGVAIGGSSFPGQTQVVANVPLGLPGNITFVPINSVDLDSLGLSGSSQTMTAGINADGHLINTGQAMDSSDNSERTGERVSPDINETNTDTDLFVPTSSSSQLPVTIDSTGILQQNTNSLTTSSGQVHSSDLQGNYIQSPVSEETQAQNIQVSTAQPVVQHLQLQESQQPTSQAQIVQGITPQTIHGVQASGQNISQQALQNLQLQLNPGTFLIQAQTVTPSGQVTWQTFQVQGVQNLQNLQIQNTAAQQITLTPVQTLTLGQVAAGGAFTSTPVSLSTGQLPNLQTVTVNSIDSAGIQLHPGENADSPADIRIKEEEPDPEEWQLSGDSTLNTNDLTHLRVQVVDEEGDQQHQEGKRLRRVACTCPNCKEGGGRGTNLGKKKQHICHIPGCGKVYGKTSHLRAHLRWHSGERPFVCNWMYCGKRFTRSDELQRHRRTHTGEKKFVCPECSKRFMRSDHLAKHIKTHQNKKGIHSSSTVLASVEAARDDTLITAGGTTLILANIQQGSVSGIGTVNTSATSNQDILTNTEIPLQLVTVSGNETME

## CD11c promoter -196/+30 (CD11c-luc)
[1]
  activity: 18.9 fold
[2]
  activity: 19.5 fold
